Molecular target: the molecule itself
Experiment: thioflavin-T fluorescence (emission spectra and kinetics); 20 uM Th-T with 1-400 uM Stm1_N 1-113; 10 mM sodium phosphate with 10 or 150 mM NaCl, pH 7.4, 25 °C; emission at 0 h, kinetics until 72 h; signal from 50 uM onwards

B1: Stm1 N-terminal region (Stm1_N^1-113) of Saccharomyces cerevisiae Stm1 (domain or fragment, UniProt P39015 1-113, looked up)
chain: MSNPFDLLGNDVEDADVVVLPPKEIVKSNTSSKKADVPPPSADPSKARKNRPRPSGNEGAIRDKTAGRRNNRSKDVTDSATTKKSNTRRATDRHSRTGKTDTKKKVNQGWGDD
notes: Stm1, Saccharomyces cerevisiae (S288c), stm1 gene YLR150W, residues 1-113 of the 273 amino acids long protein; the insert is 342 nucleotides with the termination codon; Order in the construct: N-terminal His6-tag, GB1 solubility tag, TEV protease cleavage site, Stm1_N 1-113 (vector pDZ1, a modified pET-21a); A few residues from the TEV site and the NdeI site may be left at the N-terminus after …
binding result: binds

Source: paper PMC10620681, “Concentration and time-dependent amyloidogenic characteristics of intrinsically disordered N-terminal region of Saccharomyces cerevisiae Stm1” (Frontiers in Microbiology, 2023)
